These results are taken from patent publication US20200023071A1 (INNATE PHARMA, published 2020).

To fix the notation:
T1: human MICA endogenously expressed on the surface of HCT116 colon carcinoma cells (human, UniProt Q29983 24-383)
T1 sequence (looked up): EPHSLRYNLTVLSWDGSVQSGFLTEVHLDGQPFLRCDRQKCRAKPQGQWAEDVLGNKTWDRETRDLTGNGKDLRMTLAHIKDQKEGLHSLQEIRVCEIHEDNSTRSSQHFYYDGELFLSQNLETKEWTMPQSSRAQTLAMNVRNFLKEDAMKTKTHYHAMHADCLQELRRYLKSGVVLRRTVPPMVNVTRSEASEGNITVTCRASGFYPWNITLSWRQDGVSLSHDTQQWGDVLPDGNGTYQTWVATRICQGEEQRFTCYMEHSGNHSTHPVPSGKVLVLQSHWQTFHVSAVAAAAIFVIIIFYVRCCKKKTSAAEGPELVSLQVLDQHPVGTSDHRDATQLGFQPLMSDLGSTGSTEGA

B1: chimeric antibody 9C10 (human IgG1 constant regions) conjugated to a PBD dimer, DAR about 2 (antibody, V domains shown)
VH: QVQLQQPGAELVRPGTSVNLSCKASGYSFTRYWMNWVKQRPGQGLEWIGMIHPSDSETRLNQKFKDKATLTVDKSSSTAYMQLSSPTSEDSAVYYCGYGNFFYVMDYWGQGTSVTVSS
VL: DILLTQSPAILSVSPGERVSFSCRASQSIGTSIHWYQQRTNGSPRLLIKFASESISGIPSRFSGSGSGTDFTLNINSVESEDIADYYCQQSNFWPFTFGSGTKLEVK
modifications: PBD dimer via NH2-PEG-N3 / DBCO-val-ala linker on Q295 (Kabat EU numbering) of each heavy chain constant region
B2: chimeric antibody 19E9 (human IgG1 constant regions) conjugated to a PBD dimer, DAR about 2 (antibody, V domains shown)
VH: DVQLQESGPGLVKPSQSLSLTCTVTGYSITSDYAWNWIRQFPGNKLEWMGFVSYSGTTKYNPSLKSRISITRDTSENQFFLQLNSVTSEDTATYYCARGYGFDYWGQGTTLTVSS
VL: EIVLTQSPTTMAASPGEKITITCSATSSISSIYFHWYQQRPGFSPKLLIYRTSNLASGVPARFSGSGSGTSYSLTIGTMEAEDVATYYCQQGTTIPFTFGSGTKLEIK
modifications: PBD dimer via NH2-PEG-N3 / DBCO-val-ala linker on Q295 (Kabat EU numbering) of each heavy chain constant region
B3: chimeric antibody 18E8 (human IgG1 constant regions) conjugated to a PBD dimer, DAR about 2 (antibody, V domains shown)
VH: DVQLQESGPDLVNPSQSLSLICTVTGYSITSDYSWHWIRQFPGNKLEWMGNIHYSGRINYNPSLRSRISITRDTSKNQFFLQLISVTTEDTATYYCATRRTFGNFEDYWGQGTTLTVSS
VL: QIVLSQSPATLSVSPGEKVTMTCRSSSSVNYMHWYQQKPGSSPKPWIYATSTLASGVPARFSGSGSGTSYSLTISRVEAEDAATYYCQQWSSNPLTFGAGTKLELK
modifications: PBD dimer via NH2-PEG-N3 / DBCO-val-ala linker on Q295 (Kabat EU numbering) of each heavy chain constant region
B4: chimeric antibody 6E4 (human IgG1 constant regions) conjugated to a PBD dimer, DAR about 2 (antibody, V domains shown)
VH: EVQLVESGGALVKPGGSLKLSCAASGFTFSYYAMSWVRQTPEKRLEWVATISRGGNYIYYTDSVKGRFTISRDNAKNTLYLQMTSLRSEDTAMFYCASISDYDGAWLAYWGQGTLVTV
VL: DVLMTQTPLSLPVSLGDQASISCRSSQSIIHTNGNTYLEWYLQKPGQSPKLLIYKISNRFSGVPDRFSGSGSGTDFTLKISRVEAEDLGVYYCFQGSHVPWTFGGGTKLEIK
modifications: PBD dimer via NH2-PEG-N3 / DBCO-val-ala linker on Q295 (Kabat EU numbering) of each heavy chain constant region

This assay deals with T1, human MICA endogenously expressed on …. Description: cell-based or functional assay.
For the molecule B1, the “EC50 (also referred to as IC50) of cytotoxicity towards HCT116 cells, cell confluence over one week (IncuCyte)” value (shortened to “EC50 … over one week (IncuCyte)”) is 7.77 ng/mL.

For the molecule B2, the “EC50 … over one week (IncuCyte)” value stood at 0.475 ng/mL.

Regarding B3, the “EC50 … over one week (IncuCyte)” value turned out to be 3.77 ng/mL.

For B4, the “EC50 … over one week (IncuCyte)” value amounted to 2.25 ng/mL.
